The target of data set [1] is T1, DENV-1 VLP (envelope protein) (Dengue virus type 1, UniProt P17763 281-775). The data set is described as follows: SPR. Conditions: protein: commercial; predicted stem-loop.
Data set [2] addresses T1, DENV-1 VLP (envelope protein). Description: SPR; response lower than DENV-Apt_41. Conditions: protein: commercial; predicted stem-loop.

T1 sequence (P17763 281-775): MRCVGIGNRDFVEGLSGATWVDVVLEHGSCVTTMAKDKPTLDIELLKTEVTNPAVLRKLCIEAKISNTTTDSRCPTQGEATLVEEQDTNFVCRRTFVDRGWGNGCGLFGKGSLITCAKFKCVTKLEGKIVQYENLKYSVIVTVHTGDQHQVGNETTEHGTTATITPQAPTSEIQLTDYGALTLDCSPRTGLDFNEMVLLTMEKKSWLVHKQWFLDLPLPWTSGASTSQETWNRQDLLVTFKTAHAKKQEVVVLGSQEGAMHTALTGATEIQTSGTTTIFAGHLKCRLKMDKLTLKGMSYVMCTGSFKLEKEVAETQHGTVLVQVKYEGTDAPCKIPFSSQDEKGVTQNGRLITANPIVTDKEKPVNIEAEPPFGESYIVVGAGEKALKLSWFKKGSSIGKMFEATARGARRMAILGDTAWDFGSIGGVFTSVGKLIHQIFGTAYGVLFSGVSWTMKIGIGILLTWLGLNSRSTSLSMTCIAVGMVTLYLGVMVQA

B1: DENV-Apt_41 (XNA)
RNA: GGGUAAUUUGUUUUACUGGGGGGUUAACCUAACAAGUGCCC
modifications: 2'-fluoro C and U
As to B1, the binding result in data set [1] is recorded as “binds”.

B2: DENV-Apt (XNA)
RNA: GGGUCUUGUUUCUUCUCUGUGUGUAAUUUGUUUUACUGGGGGGUUAACCUAACAAGUGCACACUCGUCACACACUCACAUC
modifications: 2'-fluoro C and U
Consider B2, for which, in data set [2], the binding result is on record as “binds”.
